The target in one experiment is T1, purified EGFR (Sigma) (human, UniProt P00533 25-1210, limits assumed).
T1 construct: Bought; purified from human A431 cells; also called solid phase coated EGFR

The target in experiment [1] is T2, recombinant human IGF-IR (rhIGFIR) (human, UniProt P08069 31-932, limits assumed).
T2 construct: Bought; also called immobilized IGF-IR
Nature of the experiment: SPR (BIAcore), immobilized IGF-IR.

For experiment [2], the target named is T3, EGFR expressed on cells and on A431 derived membrane vesicles (human, UniProt P00533 25-1210).
T3 construct: whole, on cells; Used for assays on whole cells and on immobilised A431 membrane vesicles; also called EGF receptor; EGFR harboring A431 vesicles

The results in this text go back to patent publication WO2007042289A2 (dated 2007).

B1: PMP38G7 (VHH)
VHH: EVQLVESGGGLVQAGGSLRLSCAASGRTFSSYVMGWFRQATGKEREFVATIAWDSGSTYYADSVKGRFTISRDNAKNTVHLQMNSLKPEDTAVYYCAASYNVYYNNYYYPISRDEYDYWGQGTQVTVSS
notes: also called Nanobody family VIII
In the experiment with purified EGFR (Sigma), B1 gave an off-rate (koff) not above 0.0017 s⁻¹.

B2: PMP1C7 (VHH)
VHH: QVKLEESGGGLVQAGGSLRLSCVASGRTFSRTAMAWFRQAPGKEREFVATITWNSGTTRYADSVKGRFFISKDSAKNTIYLEMNSLEPEDTAVYYCAATAAAVITPTRGYYNYWGQGTQVTVSS
notes: Anti-IGF-IR Nanobody; tag not described; also called IGFRPMP1C7
For the molecule B2, the koff in experiment [1] is 0.0019 s⁻¹.

B3: PMP7E12 (VHH)
VHH: EVQLVESGGGLVQAGGSLRLSCTASGRTFENNAMAWFRQAAGKEREFVAGFSGSGGATYYAHSVEGRFTISRDNAKNTVDLQMNSLSLEDTAVYLCAARRKSGEVVFTIPARYDYWGQGTQVTVSS
notes: Anti-EGFR Nanobody
Take B3: in the experiment with purified EGFR (Sigma), the dissociation rate constant (koff) is not above 0.0017 s⁻¹.

B4: 27-10-E8 (VHH)
VHH: EVQLVESGGGLVQAGGSLRLSCAASGRTFSTYTMAWFRQAPGKEREFVQGISRSDGGTYDADSVKGRFTISRDNAKNTVYLQMNSLKPEDTAVYFCAAASVKLVYVNPNRYSYWGQGTQVTVSS
notes: Anti-EGFR Nanobody, tested as periplasmic extract or IMAC purified protein; tag not described; also called Type A Nanobody
Consider B4, for which the koff with purified EGFR (Sigma) was not above 0.0017 s⁻¹.

B5: PMP7A5 (VHH)
VHH: EVQLVESGGGLVQAGGSLRLSCAASDRTFSSNNMGWFRQAPGKEREFVAAIGWGGLETHYSDSVKGRFTISRDNAKNTVYLQMNSLKPEDTARYYCAVSSTRTVIYTLPRMYNYWGQGTQVTVSS
notes: Anti-EGFR Nanobody; tag not described; also called EGFRPMP7A5
In the experiment with purified EGFR (Sigma), B5 displayed a koff not above 0.0017 s⁻¹.

B6: PMP9C1 (VHH)
VHH: EVQLVESGGGLVQAGGSLRLSCAASGRTFSGFAMGWFRQAPGKEREFVAAISWSGGSLLYVDSVKGRFTISRDNAKNTVHLQMNSLKPGDTAVYYCAAMVGPPPRSLDYGLGNHYEYDYWGQGTQVTVSS
notes: Anti-EGFR Nanobody; tag not described; also called Nanobody family X; Type C Nanobody
Regarding B6, in experiment [2], the binding result is “binds”.

In general, koff refers to a measure of how fast the partners let go of each other.
